Test results taken from a protein production outcome set (Wang et al. 2014).

Test: label from the status in PepcDB records

Sequence | protein production
MTRIIPFALAVAALATAGAAQASTMVIGGGAAKECSDSALKGRSDKRSVLACTSALELENLNFRDRARTYVNRGVLQMRQKDFGAARSDFDAAGAIDPNLGEVFVNRGAAYVGEERYREGVEQIDKGLALGVKEPEKAWFNRGLANEGLGDLKAAFRDYSRAAELNPDWPAPKLELTRFSVKRP | failed
MTRNDSGDLISRNDSTNHMNTTQPQKMLPEATFSDRMLEIGIKYKKQLTALVVVICLAAGGTLFWMQKTKVDEVQASLALAKITPWIEMGDVNKAVNGEGSIKGLNSIIKTWGGTPSGKTARLYMAYILLNSGKPDDALSIYKGFSSDNKDLQASALAGAAACHVQKKAFAEAAPEYEKASETAENETLKSMYLTKAAESYSAAGQADKAAKLYDQVIKTWPATSSAGMAQRALLRLAGAGVQIPQI | failed
MTRPERAPLSASARIEVPFHDVDAMAVCWHGHYLKYFEIGRAALLRAFDYDYPEMRASGYLWPVVEAHLKYIRPATYGQRIEVRATLIEYENRLKIGYEIADCASGQRLTKGHTIQVAVCAATSELQFVSPAVVFEKVERAWADLEHHHHHH | failed
MTRPQAAAEDARNAMVAGLLASGISVNGLQPSHNPQVAAQMFTTATRLDPKMCDAWLARLLAGDQSIEVLAGAWAAVRTFGWETRRLGVTDLQFRPEVSDGLFLRLAITSVDSLACAYAAVLAEAKRYQEAAELLDATDPRHPFDAELVSYVRGVLYFRTKRWPDVLAQFPEATQWRHPELKAAGAAMATTALASLGVFEEAFRRAQEAIEGDRVPGAANIALYTQGMCLRHVGREEEAVELLRRVYSRDAKFTPAREALDNPNFRLILTDPETIEARTDPWDPDSAPTRAQTEAARHAEMAAKYLAEGDAELNAMLGMEQAKKEIKLIKSTTKVNLARAKMGLPVPVTSRHTLLLGPPGTGKTSVARAFTKQLCGLTVLRKPLVVETSRTKLLGRYMADAEKNTEEMLEGALGGAVFFDEMHTLHEKGYSQGDPYGNAIINTLLLYMENHRDELVVFGAGYAKAMEKMLEVNQGLRRRFSTVIEFFSYTPQELIALTQLMGRENEDVITEEESQVLLPSYTKFYMEQSYSEDGDLIRGIDLLGNAGFVRNVVEKARDHRSFRLDDEDLDAVLASDLTEFSEDQLRRFKELTREDLAEGLRAAVAEKKTK | failed
MTRPTHPNALIWLLLSIAIIALDQATKAWVLTSLPEYIPVPVIHGFWNWYRSYNTGAAFSFLSDAGGWQMWLFIALALGISGLLTFWLSRTPRREWRSALPYALIIGGGIGNVIDRFLHGHVVDFIQWYVGSYYWPSFNLADSAIVAGAIGIGLLSLFDSKHSPKTP | failed
MTRQRIAIDMDEVLADTLGAVVKAVNERADLNIKMESLNGKKLKHMIPEHEGLVMDILKEPGFFRNLDVMPHAQEVVKQLNEHYDIYIATAAMDVPTSFHDKYEWLLEYFPFLDPQHFVFCGRKNIILADYLIDDNPKQLEIFEGKSIMFTASHNVYEHRFERVSGWRDVKNYFNSIEK | failed
MTRRALFGPKVAPLIQAASLTLALLLFLAACGPKGSYENVGPEELYEALAAGALVVDVRTPGEFAQGHVPGAINLPVEEVARWADRIPKDRPVYLYCRSGNRSRKAAEYLARKGYTNLYNVEGGVLAIARAGYPLVR | failed
MTRRGAQKASPSRAPGETALSTLYVTHPSAVEHVVPTGHPERPARMQAVERALEDERFAALVRCHAPRAEASVAELVHPASYVETIVAASPDEGFFQIDGDTLMSPGSLNTCLHAIGGSNHAVDAVMKGECANAFVAMRPPGHHAERDRAMGFCLFNHAAIAVRHAQKAFGATRVALVDFDVHHGNGSQDIFWADKTVMYASTHQMPLFPGSGATGERGDHDTIVNAPLKAFDGSELFREAFEARILPRLDAFAPDLIVISAGFDAHKLDPLANIQLDEADFGWATRRLMEVADRHAGGRVVSILEGGYSLDGLARSVAAHMDALMGR | failed
MTRRLVLMLALLSGSAGASGSFFTLLQTWQGLGHAPIAVSPDGRLLALTRPAPRTPAYAPYDTRIEVRDTAKMRRLYRVPAANGDGKTLLFSPDSRTLWSAHSGTLHYDAWTGKLADNREGSDGAGVSALAFAPGGQSYVLAGVNAVGQTRLVRVGVSPLRSFWPVTRPTAGDGMQPNWTSALAFSPDGRWVASGSVGGGVILRSSVTGRPLRVLADEPGQAPHRARLVDLLFLSPARLLSASADGQVRLWDAATGRALASLPCGERLGAVVQLPGGTRVVAATSRGLQLIETSGGRLRRLETVGGDYADVGVSAAGELWAITRGGTLSHWRLLSR | failed
MTRRRKILTGVLALVVLAAGGLAAARALGPGGTRVTAYFDRAIGVYAGSDLRILGVRVGEVESVDPEGTRVRVGLRLDDGIKVPEDARAVVVAPSVVADRYVQLTPAYRTGPALADGAVLPASRNHVPVEIDQIYDSITELGDALGPDGANADGALSELLRTGADNLDGNGEAIGDGVEQFGKAAKTLDGSSGDLFETLSSLQTFTTMLKNKDTDVRTAQERLDEVVSFFADNKDDLTGALEELGKALGQVKTFIEDNRGELKKNVDRLVPITRTLVEQRASLAEALDVAPLAADNVVNAYNPDTRTLDGRANLNEISSGGPLLPLPVAGTEKGEGRLEHHHHHH | not failed
MTRRVIALAGGATFKDIVRTMETQLISALPVIDSGSHVIGVVSEADVLRKEEFRDSDQLRGPRSRPPGALVKARAVTAEDLMTAPAVTVHPKAPVARAARLMARRRVKRLPVVDDEGVLQGIVSRADLLRVFLRSDPDIAEEVRREIVGGRFPEGLGSVRVEVHEGVVTLTGRVPDTSLVPLAERLVRSVEGVVDVRCVLTGPRHRMTGESEKAGAAAHRPGP | failed
MTRTMSFHKNCELCTTAGGEILWQDALCRVVHVENQDYPGFCRVILNRHVKEMSDLRPAERDHLMLVVFAVEEAVREVMRPDKINLASLGNMTPHVHWHVIPRFKRDRHFPNSVWGETKRESLPQALDQGSTTALKKAISVRLDQGEPVFMGM | not failed
MTRTSKIAVIGGGMAGLAAAAGFDDAGFVVELYERQSYDSKRVNCGEAMTAVSKIPLEPTVENGFLNPLPAMEVEVYDGIDADRHRTGAGTFPAADTYITDRNVVEQSWAEQLSEKGVDIHENQSITRTDFHEFTDEYDLVVDATGQPSLSSKALGTTNEYSGYMVALNSDVEGDFTELYPNSRIILENYTGYSWAFPKTSQRANVGIGWTVSDRPSDYMKALREACKRNGWPVPSQERTNVAIIPEGPSLDPDRTYLPEHSVVRVGDAAGIANRLTGKGISQAVESGFLAAELANSGQLHNFPDSLYQRMKTEYIFATVVRYFLETRNPKVLGAAIRAAAGIDIEDVDRSPSTVLLRLLRHPVLFARIFSRRRVLNRVYGGMTNQWELIN | failed
MTRVQANMLLLLAAAIWGGGFVAQSSAMSSIGPFWFVGLRFAIAAIAVLPFALMETRSLKSPPRRREIGSFILVGLALFGGATTQQVGLLTTTVTNSSFLTGLYVIFVPVIAVVLYRRHPHWVVWPCALMMLGGIFLLSGGAFETLTTGDILSIICAFFWAIQITLAGRFVSESGRPLALSFTQFAVCSLLSCMIGVVFEPISMAAIEASMMEILYVGLVSSGLAFVLQVIGQRYTTAPQAAIFLSSEALFGALMASIFLKETISSAGYVGCLIIFVAILIVELVPELTRKRQKTVAEAS | failed
MTRYALLVRGINVGGKNKVVMAELRQELTNLGLEKVESYINSGNIFFTSIDSKAQLVEKLETFFAVHYPFIQSFSLLSLEDFEAELENLPAWWSRDLARKDFLFYTEGLDVDQVIATVESLELKDEVLYFGKLGIF | failed
MTSAAMATAYFDKGNQCAARCDWLGAIEAFDHCLSLNPRDWQALANRGNAKVQREDLSGALEDYLAAAALNPSSCNIKSNLAVLLKELGELDLAAALLEEVLAAEPAHVDAWSNLGIVRQHQRRYQDAIACQQNALAIAGPSVARYSNLGNAYSCALMLDAAIEVQRKGLELAPDDANLQFNQSITLLTAGRYAEAWPLYEARWRSVLRPRLTQKRWQGEALGERTLLLWSEQGLGDSLQMVRLLSCLRRAHPQARLLLACPVSFHRLFAQFDGVSLLPADALPEHDCQLPLMSLPWLLGITLDNLPTEPYLRVPGGMVPPLPAASRRRVGVVWESGLWGVGVADLGRQHKSIPAGLFAEICRVPGIEFIALQPGGVPAELSDWVRACPISDFADTAALAAQMDLVICVDTAILHLAGAMGRPVWALLRAESAPFFLADAETAPWYPSVKLWRQPAPGAWEPMLKQIAEALAGRQTF | failed
MTSASAPSFNPGKGPGSAVGIALLGFGTVGTEVMRLMTEYGDELAHRIGGPLEVRGIAVSDISKPREGVAPELLTEDAFALIEREDVDIVVEVIGGIEYPREVVLAALKAGKSVVTANKALVAAHSAELADAAEAANVDLYFEAAVAGAIPVVGPLRRSLAGDQIQSVMGIVNGTTNFILDAMDSTGADYADSLAEATRLGYAEADPTADVEGHDAASKAAILASIAFHTRVTADDVYCEGISNISAADIEAAQQAGHTIKLLAICEKFTNKEGKSAISARVHPTLLPVSHPLASVNKSFNAIFVEAEAAGRLMFYGNGAGGAPTASAVLGDVVGAARNKVHGGRAPGESTYANLPIADFGETTTRYHLDMDVEDRVGVLAELASLFSEQGISLRTIRQEERDDDARLIVVTHSALESDLSRTVELLKAKPVVKAINSVIRLERD | failed
MTSETNIRTLVVDDSDFFAEMTADTLTQQHDIESVAANSAAEALERLEGGGFDCVVSDYEMPEMDGLELLEAIRETNPSIPFILLTGRGDEETASAAIAAGVADYLLKLEVVEDKQYGRLANRIENVVSQERTRKKFESLVSDSPDGIVHLTTNGTILSVNPSMAGRLGADPDTLVGQQLSAVMDSEAANQRLEAGKSAVENGTATRSEDAVGGRHYHNQYIPVDSHRKSDTFQLVSRDITERVERQRELERQNDRLEEFASVVSHDLRNPLNVAQGAVDLLGEPADSKEAELVAKIDRSLDRMGCIIEDVLTLARQGQTVSDPQETELSTLASTAWTWIEAEQASMSVASSTKLAADSGRAQDLLANLFRNAIEHNDGDVEIEIGLLESNDGFYIADNGEGVEGDAEDVFEMGYSSTKDGTGFGLAIVEQVAEAHGWEVSLTESDSGGARFEVSSVELHD | failed
MTSFAQLDIKSEELAIVKTILQQLVPDYTVWAFGSRVKGKAKKYSDLDLAIISEEPLDFLARDRLKEAFSESDLPWRVDLLDWATTSEDFREIIRKVYVVIQEKEKTVEKPTAL | not failed
MTSHTPKFHRLAIAELRRETQDAVSMSFTIPDEIAADYTFAPGQYLTLRTTLDGEELRRSYSICSGPDDRELRIAVKKVNGGAFSGWALEQLKSGDQIEVMTPSGRFGVAHAPGESRVHVGFAAGSGITPLISIIRGILAREPNSRFFLFYGNRTTSNILFRQALQDLKDRFMARLAVFHVLSQEEQDLPILHGRLDRDRVTLLLRAMLPAQAIDHVFICGPTAMSEEIAATCAELGVPADRVHVERFVAGSGGKPRPTPVIAPQAPPAAIAALIIDGKRKEVPVAAGEAILDAALRAGIDLPYACKGGMCSTCRAKVVEGETRMDVNYSLEPWELDAGFVLTCQAHPVSDRVVIDYDAV | failed
MTSKHFISKKEAKRIWEAMARYGIDITGESLEVAAQKSASAYYIGGKPMVFQAGDLIPSVYLLNYRNPSRNIVTVDEGAEPHILNGSDLFAPGIVSMDDSIRKGDMIFVKSSKGYFIAVGMAEMDAGEVMATKRGKAARIIHFPGDELIRAFP | not failed
MTSLNRPPFDFKTQYSLGFNAQDDEIVVDFFCGGGGAGTGLEMGLGRKVSVAKNHSAAAISMHTANHPGAKHFTTDVFDGDPDTECGGKAVGWFHMSPDCTHHSQAAGGQPRKREIRNLSWIGLKWAGKKKPRVVSLENVKQILQWGPLVAKRCKSTGRVVKLGGGIAAPGEVVPVDQQFLVPDPARRGQTWAVFVAELERLGYAVEWRVVRACDFGAPTSRERLFMIARCDGQSIVWPEPTHAKRPSKGQQPLKSAAECIDFSDLGKSIFERKKDLAQATLRRVAKGM | failed
